Three molecules from US20130171063A1 (LUDWIG INSTITUTE FOR CANCER RESEARCH, published 2013) can be followed below.

The target of one assay is T1, peptide 23 (N-terminal biotin).
T1 peptide: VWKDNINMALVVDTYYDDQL
As to the kind of experiment: ELISA on biotinylated 20-mer c-Met peptides on streptavidin plates, A405 nm. (ELISA stands for enzyme-linked immunosorbent assay.)

For the next assay, the target named is T2, peptide 24 (N-terminal biotin).
T2 peptide: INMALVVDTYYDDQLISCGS
The description is as above.

For a further assay, the target named is T3, peptide 25 (N-terminal biotin).
T3 peptide: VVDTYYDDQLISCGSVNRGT
The assay is described as above.

In assay [1] the target is T4, purified truncated c-Met fragment designated 25-567H (human, UniProt P08581 25-567).
T4 construct: Produced in transfected CHO-Lec cells; also called c-Met antigen; c-Met Ag
T4 sequence (P08581 other isoform, or with tags, fused parts or gaps limits assumed): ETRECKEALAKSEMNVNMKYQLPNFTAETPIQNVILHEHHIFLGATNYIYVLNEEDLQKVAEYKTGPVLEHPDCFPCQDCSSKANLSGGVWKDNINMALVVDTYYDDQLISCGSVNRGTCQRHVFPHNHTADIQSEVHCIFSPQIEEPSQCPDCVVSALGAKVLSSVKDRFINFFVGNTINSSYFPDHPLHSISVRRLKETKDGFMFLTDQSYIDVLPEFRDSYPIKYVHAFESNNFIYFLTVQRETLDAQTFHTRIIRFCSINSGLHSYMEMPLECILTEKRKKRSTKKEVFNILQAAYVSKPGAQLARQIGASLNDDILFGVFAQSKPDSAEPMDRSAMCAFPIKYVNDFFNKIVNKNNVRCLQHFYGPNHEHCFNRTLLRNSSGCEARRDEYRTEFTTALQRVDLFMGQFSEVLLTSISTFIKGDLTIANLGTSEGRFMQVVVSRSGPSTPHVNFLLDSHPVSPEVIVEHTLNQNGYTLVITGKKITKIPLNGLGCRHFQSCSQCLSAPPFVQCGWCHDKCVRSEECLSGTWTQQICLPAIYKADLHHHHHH
As to the kind of experiment: BIAcore, His6-c-Met 25-567 on Ni-NTA chip, antibody passed over; apparent KD.
Description: The LMH antibodies were passed over the chip at varying concentrations in order to determine apparent affinity (KD). Chips were regenerated with EDTA.

The target in a further assay is T5, peptide 46 (N-terminal biotin).
T5 peptide: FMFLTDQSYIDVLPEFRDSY
Description: ELISA on biotinylated 20-mer c-Met peptides on streptavidin plates, A405 nm, mean ± SEM.

The target of a further assay is T6, peptide 47 (N-terminal biotin).
T6 peptide: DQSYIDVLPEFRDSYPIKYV
The description is as above.

The next assay addresses T7, peptide 48 (N-terminal biotin).
T7 peptide: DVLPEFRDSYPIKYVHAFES
The description is as above.

For assay [2], the target named is T4, purified truncated c-Met fragment …. Description: ELISA, plate coated with recombinant truncated c-Met antigen.
Description: Following incubation, the supernatant was removed and the wells washed twice with wash buffer 0.05% Tween20-PBS, this was followed by a 1 hour block at room temperature with 3% FCS/PBS at 230 μl/well. The wells were then washed one with wash buffer (0.05% Tween 2-PBS) and rinsed with PBS. 100 μl of sample (hybridoma supernatant) was then added to each well and the plate incubated at room temperature for 1 hour. This was followed by a 4× wash with wash buffer (0.05% Tween 2-PBS) and rinse with PBS. 100 μl of goat anti-mouse Ig gamma-AP (Sigma A3438), diluted in wash buffer 1:2000 was then added and allowed to incubate at room temperature for 1 hour. Following the incubation, the wells were washed 4× with wash buffer and rinsed with PBS. The reaction was developed with 100 μl of pNPP (1 mg/ml n diethanolamine-HCL buffer pH 9.6) for 10 mins at room temperature. This was followed by stop solution (3.0 M NaOH, 50 μl/well). The OD was measured at 405 nm.
For assay [3], the target named is T8, c-Met receptor as expressed by human tumor cells (total c-Met) (human, UniProt P08581 25-1390).
T8 construct: whole, on cells; also called surface c-Met; HGFR
T8 sequence (P08581 25-1390): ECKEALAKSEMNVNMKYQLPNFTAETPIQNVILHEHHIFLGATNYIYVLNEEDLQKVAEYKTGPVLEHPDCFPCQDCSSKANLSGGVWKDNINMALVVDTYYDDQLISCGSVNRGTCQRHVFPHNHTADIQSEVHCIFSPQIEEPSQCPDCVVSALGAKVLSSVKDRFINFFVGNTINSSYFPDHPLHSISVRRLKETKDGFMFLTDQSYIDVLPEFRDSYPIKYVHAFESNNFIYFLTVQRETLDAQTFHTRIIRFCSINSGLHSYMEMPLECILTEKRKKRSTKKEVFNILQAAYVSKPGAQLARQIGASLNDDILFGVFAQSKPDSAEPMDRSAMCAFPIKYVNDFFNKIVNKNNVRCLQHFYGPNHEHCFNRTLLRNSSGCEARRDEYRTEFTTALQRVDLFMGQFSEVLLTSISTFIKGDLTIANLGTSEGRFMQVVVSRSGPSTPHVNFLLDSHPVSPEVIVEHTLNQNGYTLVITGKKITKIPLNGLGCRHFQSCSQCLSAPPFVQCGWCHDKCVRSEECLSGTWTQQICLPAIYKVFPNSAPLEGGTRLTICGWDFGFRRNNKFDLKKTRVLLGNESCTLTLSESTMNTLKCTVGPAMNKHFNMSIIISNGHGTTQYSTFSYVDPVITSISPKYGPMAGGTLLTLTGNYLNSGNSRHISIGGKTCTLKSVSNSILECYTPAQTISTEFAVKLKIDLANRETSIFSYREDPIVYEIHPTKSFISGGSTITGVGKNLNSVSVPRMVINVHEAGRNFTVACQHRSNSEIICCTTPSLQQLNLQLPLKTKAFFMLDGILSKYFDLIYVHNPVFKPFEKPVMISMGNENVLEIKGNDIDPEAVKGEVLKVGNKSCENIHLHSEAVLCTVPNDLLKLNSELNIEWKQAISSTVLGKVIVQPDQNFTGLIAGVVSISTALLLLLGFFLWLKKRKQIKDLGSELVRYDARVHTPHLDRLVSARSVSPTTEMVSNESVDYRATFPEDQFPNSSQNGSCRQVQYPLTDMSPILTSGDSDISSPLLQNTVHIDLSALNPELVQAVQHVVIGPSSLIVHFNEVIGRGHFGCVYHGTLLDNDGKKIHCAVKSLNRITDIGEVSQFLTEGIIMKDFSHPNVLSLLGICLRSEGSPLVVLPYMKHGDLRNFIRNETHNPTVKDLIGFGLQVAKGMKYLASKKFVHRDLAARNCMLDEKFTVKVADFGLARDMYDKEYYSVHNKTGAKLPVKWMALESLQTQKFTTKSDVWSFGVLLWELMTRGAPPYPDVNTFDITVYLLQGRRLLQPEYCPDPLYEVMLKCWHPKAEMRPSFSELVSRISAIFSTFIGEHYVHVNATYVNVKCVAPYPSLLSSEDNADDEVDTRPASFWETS
Description: flow cytometry on A549 cells, PE-conjugated anti-mouse secondary antibody. (Flow cytometry measures light scatter and fluorescence of single cells or particles in a stream.)
Description: The control antibody was a mouse IgG1 isotype matched antibody. An increase in PE signal intensity indicated antibody binding to c-Met.

The target in the next assay is T9, unprocessed c-Met (p170) (human, UniProt P08581 25-1390).
T9 construct: whole, on cells; Single-chain precursor, not cleaved at the furin site; also called unprocessed form of c-Met; c-Met precursor
T9 sequence (P08581 25-1390): as above
As to the kind of experiment: immunoprecipitation from A549 cells, western blot with 25H2 under reducing conditions. (A western blot detects proteins with antibodies after separation by electrophoresis.)

Description for peptide 23: (§1) The library consisted of N-terminally biotinylated, 20-mer peptides, overlapping by 15 amino acids and pre-absorbed onto 96-well streptavidin coated plates. LMH antibodies 80 to 89 were added to these plates to determine their reactivity against each single peptide using standard ELISA. Epitopes for each antibody were determined by overlaying the sequences of the peptides which reacted with the antibody, leading to a determination of a core common amino acid sequence.
(§2) The peptide sequence bound by each antibody was aligned to determine the core epitope.
Description for peptide 24: as §1, §2
Description for peptide 25: as §1, §2
Description for peptide 46: as §1, §2
Description for peptide 47: as §1, §2
Description for peptide 48: as §1, §2

B1: antibody LMH 82 (antibody, V domains shown)
VH: EVQLQQSGPELVKPGASVKMSCKASGYTFTDYYMKWVKQSHGKNLEWIGDINPNNGGTNYNQKFKGKATLTVDKSSSTAYMQLNSLTSEDSAVYYCARSGYWGQGTTLTVSS
VL: DVLMTQTPLSLPVSLGDQASISCRSSQSILHSNGNTYLEWYLQKPGQSPKLLIYKVSNRFSGVPDRFSGSGSGTDFTLKISRVEAEDLGVYYCFQGSHVPWTFGGGTKLEIK
notes: Mouse monoclonal antibody from a hybridoma; also called hybridoma PTA-11406
As for B1, the binding result with peptide 23, in the assay with peptide 24 and with peptide 25 was “binds” in each case.

B2: antibody LMH 87 (antibody, V domains shown)
VH: QVQLQQSGPELVKSGASVKMSCKASGNTLKDDHVHWVKQRPGQGLEWIGWIYPGGGRTRYNEKFKGKTTLTADKPSSTVNMLLSSLTSEDSAIYFCTNLVFDVWGAGTTVTVSS
VL: DIVMTQAAPSVPVTPGESVSISCRSSKSLLHSNGNTYLYWFLQRPGQSPQVLIYRMSNLASGVPDRFSGSGSGTAFTLRIRRVEAEDVGVYYCMQNLEYPFTFGGGTKLEIK
notes: Mouse monoclonal antibody from a hybridoma
On to B2, for which, in [1], the Kd was 2.6 nM. Moreover, the binding result with peptide 46, with peptide 47 and with peptide 48 was “binds” in each case.

B3: antibody LMH 85 (antibody, V domains shown)
VH: QVQLQQSGAELAKPGASVKMSCKASGYTFIIYWIHWIKQRPGQGLEWIGYINPSNDYTEYNQKFKDKATLTADKSSNTAFMQLSSLTSEDSAVYYCARDSYDYDDGAYAMDYWGQGTSVTVSS
VL: QIVLSQSPAILSASPGEKVTMTCRASSGVNYMHWYQQKPGSSPKPWIYATSNLASGVPARFSGSGSGTSYSLTISRVEAEDAATYYCQQWISHPFTFGSGTKLEIK
notes: as for B2
In the case of B3, the binding result (in [2]; in assay [3]; in the assay with unprocessed c-Met (p170)) was “binds” throughout.
